Test results: article PMC5093072 (Structure (London, England : 1993), 2016)

B1: glutathionylated T2D/A4V-SOD1 (GS-T2D/A4V-SOD1), C111-glutathionylation enriched species (enzyme)
chain: not shown
modifications: glutathionylation at C111 (enriched species); for SPR: biotinylated on one subunit (EZ-link NHS-LC-LC-biotin)
B2: double mutant T2D/A4V-SOD1, unmodified (enzyme)
chain: not shown
modifications: for SPR: biotinylated on one subunit (EZ-link NHS-LC-LC-biotin)

Key:
SEC = target: the molecule itself; test: SEC
SPR = target: the molecule itself; test: SPR

Protein | stoichiometry N (SEC) | koff (SPR) [s⁻¹]
B1 | 2 | 0.000161
B2 | 2 | 0.000156
